Test results from US20140120095A1 (Boehringer Ingelheim, published 2014).
Read-outs that look alike come from different tables or passages of the source. Values belong to the binder of their own block, whether it stands above or below them.

How the values were obtained:
[1] = target: T1, recombinant human VEGF165 (human, UniProt P15692-4 27-191, biotinylated in the competition assays); experiment: ProteOn off-rate assay, periplasmic extract on coated hVEGF165
T1 construct: Bought protein; also called hVEGF165; rhVEGF165
Experimental: One additional variant is constructed in which the potential oxidation site at position M30 (CDR1 region, see FIG. 38 indicated as bold italic residue) is removed by introduction of a M30I mutation. […] Off-rates are calculated and compared to the off-rates of the parental VEGFBII5B05.

[2] = target: T1, recombinant human VEGF165; experiment: SPR Biacore, hVEGF165
Experimental: (§1) Samples are injected for 2 min and allowed to dissociate up to 20 min at a flow rate of 45 μl/min. In between sample injections, the chip surface is regenerated with 100 mM HCl. HBS-EP+(Hepes buffer pH7.4+EDTA) is used as running buffer. Binding curves are fitted using a Two State Reaction model by Biacore T100 Evaluation Software v2.0.1.

recombinant human DLL4 [3] = target: T2, recombinant human DLL4 (human, UniProt Q9NR61 25-522); experiment: AlphaScreen biot-hDLL4/hNotch1-Fc, periplasmic extract
T2 construct: also called rhDLL4; hDLL4

recombinant human DLL4 [4] = target: T2, recombinant human DLL4; experiment: binding ELISA, coated rhDLL4
Experimental: (§2) In order to determine cross-reactivity to mouse DII4 a binding ELISA is performed. […] Wells are blocked with a casein solution (1% in PBS). VHHs are applied as dilution series and binding is detected using a mouse anti-myc (Roche) and an anti-mouse-AP conjugate (Sigma, St Louis, Mo., USA) (FIG. 7 A-H). As reference, binding to human DII4 is measured.

recombinant human DLL4 [5] = target: T2, recombinant human DLL4; experiment: Biacore off-rate, periplasmic extract; heterogeneous fit, slow off-rate
recombinant human DLL4 [6] = target: T2, recombinant human DLL4; experiment: Biacore off-rate, periplasmic extract; heterogeneous fit, fast off-rate
recombinant human DLL4 [7] = target: T2, recombinant human DLL4; experiment: hDLL4 ELISA screen, periplasmic extract
[8] = target: T1, recombinant human VEGF165; experiment: AlphaScreen, hVEGF165/hVEGFR2-Fc competition, -HSA
[9] = target: T1, recombinant human VEGF165; experiment: AlphaScreen, hVEGF165/hVEGFR1-Fc competition, -HSA
[10] = target: T1, recombinant human VEGF165; experiment: SPR Biacore, VEGF165
[11] = target: T1, recombinant human VEGF165; experiment: AlphaScreen, hVEGF165/hVEGFR2-Fc competition
[12] = target: T3, VEGF (used to stimulate HUVEC cells) (UniProt P15692-4 27-191, limits assumed); experiment: cell-based or functional assay
[13] = target: T1, recombinant human VEGF165; experiment: AlphaScreen, hVEGF165/hVEGFR2-Fc competition, +5 uM HSA
[14] = target: T1, recombinant human VEGF165; experiment: AlphaScreen, hVEGF165/hVEGFR1-Fc competition
Experimental: (§3) Finally, streptavidin donor beads (20 μg/ml) are added and after 1 hour of incubation in the dark, fluorescence is measured on the Envision microplate reader.
Target sequence in this assay (P15692 other isoform, or with tags, fused parts or gaps): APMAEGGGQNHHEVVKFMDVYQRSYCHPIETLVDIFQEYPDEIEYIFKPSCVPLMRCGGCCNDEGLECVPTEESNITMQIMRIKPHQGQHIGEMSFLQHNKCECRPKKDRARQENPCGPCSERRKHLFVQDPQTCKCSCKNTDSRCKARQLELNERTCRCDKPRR

[15] = target: T1, recombinant human VEGF165; experiment: binding ELISA, coated rhVEGF165
Target sequence in this assay (P15692 other isoform, or with tags, fused parts or gaps): as above

[16] = target: T1, recombinant human VEGF165; experiment: ELISA, hVEGF165/hVEGFR2-Fc competition; design: % inhibition: concentration or dose not given beside the values
[17] = target: T4, recombinant mouse VEGF164 (mouse, UniProt Q00731-2 27-190, biotinylated as the labelled ligand of the mVEGF164/mVEGFR2 AlphaScreen); experiment: binding ELISA, coated rmVEGF164
T4 construct: also called mVEGF164; rmVEGF164
T4 sequence (looked up): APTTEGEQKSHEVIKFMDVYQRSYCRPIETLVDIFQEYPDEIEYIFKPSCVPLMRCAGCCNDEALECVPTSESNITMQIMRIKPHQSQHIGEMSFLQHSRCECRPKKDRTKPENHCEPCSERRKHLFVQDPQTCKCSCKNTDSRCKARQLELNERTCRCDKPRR
Experimental: Cross-reactivity to mouse VEGF164 is determined using a binding ELISA. […] Wells are blocked with a casein solution (1% in PBS). […] A mouse VEGF164 reactive mAb is included as positive control.

[18] = target: T1, recombinant human VEGF165; experiment: ELISA, hVEGF165/hVEGFR1-Fc competition; design: % inhibition: concentration or dose not given beside the values
Target sequence in this assay (P15692 other isoform, or with tags, fused parts or gaps): as the sequence (P15692 other isoform, or with tags, fused parts or gaps) above

[19] = target: T1, recombinant human VEGF165; experiment: AlphaScreen, hVEGF165/hVEGFR2-Fc competition; design: % inhibition: concentration or dose not given beside the values
Experimental: as §3

[20] = target: T3, VEGF (used to stimulate HUVEC cells); experiment: cell-based or functional assay; remark: listed apart in the source
Target sequence in this assay (P15692 other isoform, or with tags, fused parts or gaps limits assumed): as the sequence (P15692 other isoform, or with tags, fused parts or gaps) above

[21] = target: T1, recombinant human VEGF165; experiment: AlphaScreen, hVEGF165/hVEGFR2-Fc competition; remark: listed apart in the source
Experimental: as §3
Target sequence in this assay (P15692 other isoform, or with tags, fused parts or gaps): as the sequence (P15692 other isoform, or with tags, fused parts or gaps) above

[22] = target: T3, VEGF (used to stimulate HUVEC cells); experiment: cell-based or functional assay; remark: listed apart in the source
Target sequence in this assay (P15692 other isoform, or with tags, fused parts or gaps limits assumed): as the sequence (P15692 other isoform, or with tags, fused parts or gaps) above

[23] = target: T1, recombinant human VEGF165; experiment: SPR Biacore, immobilised hVEGF165, two state reaction model
Experimental: as §1
Target sequence in this assay (P15692 other isoform, or with tags, fused parts or gaps): as the sequence (P15692 other isoform, or with tags, fused parts or gaps) above

^{(a)}KD = kd1/kₐ₁ * (kd2/(kd2 + kₐ₂)) ^{(b)}Curves are fitted using a Two State Reaction model by Biacore T100 Evaluation Software v2.0.1

[24] = target: T1, recombinant human VEGF165; experiment: AlphaScreen, hVEGF165/hVEGFR1-Fc competition; design: % inhibition: concentration or dose not given beside the values
Experimental: as §3
Target sequence in this assay (P15692 other isoform, or with tags, fused parts or gaps): as the sequence (P15692 other isoform, or with tags, fused parts or gaps) above

human Jagged-1 = target: T5, human Jagged-1 (human, UniProt P78504 34-1067, limits assumed); experiment: binding ELISA on coated recombinant human Jagged-1, OD 405 nm
T5 construct: also called hJagged-1; hJAG1
In short: (§4)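 Plates coated overnight at 4° C with 1 μg/mL ligand, blocked with 1% casein in PBS. VHH dilution series applied; bound VHH detected via mouse anti-myc then anti-mouse-AP conjugate.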

recombinant mouse DLL4 = target: T6, recombinant mouse DLL4 (mouse, UniProt Q9JI71 27-532); experiment: binding ELISA on coated recombinant mouse DLL4, OD 405 nm
T6 construct: extracellular domain; also called rmDLL4; mDLL4
Experimental: as §2

human DLL1 = target: T7, human DLL1 (human, UniProt O00548 18-545, limits assumed); experiment: binding ELISA on coated recombinant human DLL1, OD 405 nm
T7 construct: also called hDLL1
T7 sequence (looked up): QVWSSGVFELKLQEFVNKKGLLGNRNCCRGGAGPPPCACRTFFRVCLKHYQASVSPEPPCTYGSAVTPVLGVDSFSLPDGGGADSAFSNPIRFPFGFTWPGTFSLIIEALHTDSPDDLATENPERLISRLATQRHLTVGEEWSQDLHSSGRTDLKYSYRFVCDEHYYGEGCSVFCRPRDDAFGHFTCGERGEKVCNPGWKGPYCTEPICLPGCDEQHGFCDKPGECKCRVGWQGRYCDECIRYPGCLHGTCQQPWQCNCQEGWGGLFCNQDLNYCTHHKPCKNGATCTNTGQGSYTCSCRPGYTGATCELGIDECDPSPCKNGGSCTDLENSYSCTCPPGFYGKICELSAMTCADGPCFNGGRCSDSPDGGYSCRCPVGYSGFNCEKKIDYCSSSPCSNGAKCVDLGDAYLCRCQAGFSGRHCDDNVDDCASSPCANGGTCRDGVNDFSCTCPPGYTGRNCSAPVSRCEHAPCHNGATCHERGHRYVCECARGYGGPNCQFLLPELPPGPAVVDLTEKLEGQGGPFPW
In short: as §4

recombinant human DLL4 [25] = target: T2, recombinant human DLL4; experiment: competition AlphaScreen, biot-hDLL4/hNotch1-Fc; partial inhibitor

T2 sequence (Q9NR61 25-522): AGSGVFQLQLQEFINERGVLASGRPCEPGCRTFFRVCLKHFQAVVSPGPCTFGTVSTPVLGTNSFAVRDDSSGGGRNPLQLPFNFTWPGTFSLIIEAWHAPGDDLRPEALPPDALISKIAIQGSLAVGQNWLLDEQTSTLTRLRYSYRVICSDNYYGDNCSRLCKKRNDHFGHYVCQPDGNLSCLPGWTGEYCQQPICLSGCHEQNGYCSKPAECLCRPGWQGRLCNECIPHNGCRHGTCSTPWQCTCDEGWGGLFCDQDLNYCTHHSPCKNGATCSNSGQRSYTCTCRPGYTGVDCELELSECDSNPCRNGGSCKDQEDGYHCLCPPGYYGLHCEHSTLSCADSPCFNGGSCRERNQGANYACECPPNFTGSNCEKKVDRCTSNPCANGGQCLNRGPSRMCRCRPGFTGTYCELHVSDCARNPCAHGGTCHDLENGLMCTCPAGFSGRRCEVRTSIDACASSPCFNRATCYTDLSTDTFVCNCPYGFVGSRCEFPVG
T6 sequence (Q9JI71 27-532): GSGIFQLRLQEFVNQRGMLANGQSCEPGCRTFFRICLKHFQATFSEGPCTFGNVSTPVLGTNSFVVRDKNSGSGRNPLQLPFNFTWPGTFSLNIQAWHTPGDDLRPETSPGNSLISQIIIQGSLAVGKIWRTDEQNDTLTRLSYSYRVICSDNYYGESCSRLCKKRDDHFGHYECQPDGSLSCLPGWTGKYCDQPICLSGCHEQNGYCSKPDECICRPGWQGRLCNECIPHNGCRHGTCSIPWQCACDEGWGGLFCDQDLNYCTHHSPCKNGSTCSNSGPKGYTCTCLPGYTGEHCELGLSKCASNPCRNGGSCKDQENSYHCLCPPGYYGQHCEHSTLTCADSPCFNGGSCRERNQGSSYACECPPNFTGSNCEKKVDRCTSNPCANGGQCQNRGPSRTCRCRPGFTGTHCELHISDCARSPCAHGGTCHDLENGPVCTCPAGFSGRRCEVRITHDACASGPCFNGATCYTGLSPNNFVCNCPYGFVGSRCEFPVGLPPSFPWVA

B1: VEGFBII5B05 (VHH)
VHH: EVQLVESGGGLVQPGGSLRLSCVASGIRFMSMAWYRQAPGKHRELVARISSGGTTAYVDSVKGRFTISRDNSKNTVYLQMNSLKAEDTAVYYCNTFSSRPNPWGAGTQVTVSS
notes: also called VEGFBII05B05; VEGFBII5B05(wt)
binding level (RU) [1]: 242 RU
koff [1]: 0.0615 s⁻¹
Kd [2]: 32 nM

B2: VEGFBII032 (VHH)
VHH: EVQLVESGGGLVQPGGSLRLSCAASGIRFISMAWYRQAPGKQRELVARISSGGTTAYADSVKGRFTISRDNSKNTVYLQMNSLRAEDTAVYYCNTFSSRPNPWGQGTLVTVSS
notes: also called VEGFBII0032
Kd [2]: 44 nM

B3: DLLBII17F10 (VHH)
VHH: EVQLVESGGGLVQAGGSLRLSCASSGRTLLNYAMGWFRQAPGKEREFVSGINWSGGSTYYADSVKGRFTISRDNAENTVYLHMNSLKPEDTAVYYCAAAHDNYWFTDDSLGRGLKYWGQGTQVTVSS
% inh (recombinant human DLL4 [3]): 88%
EC50 (recombinant human DLL4 [4]): 0.9 nM
koff (recombinant human DLL4 [5]): 0.00031 s⁻¹
koff (recombinant human DLL4 [6]): 0.0011 s⁻¹
% inh (recombinant human DLL4 [7]): 98%

B5: DLLBII17B03 (VHH)
VHH: EVQLVESGGGLVQPGGSLRLSCAASGFTFENYALGWFRQAPGKEREWVSCISSSDGTTYYADSVKGRFTISRDNVKNTVYLQMNRLKPEDTAIYYCALSLGSSWCAYDYWGQGTQVTVSS
% inh (recombinant human DLL4 [3]): 77%
koff (recombinant human DLL4 [5]): 0.00022 s⁻¹
koff (recombinant human DLL4 [6]): 0.0012 s⁻¹
% inh (recombinant human DLL4 [7]): 76%

B6: VEGFBII021 (VHH, not shown: small tags and cut ends)
chain: EVQLVESGGGLVQTGDSLRLSCEVSGRTFSSYSMGWFRQAQGKEREFVVAISKGGYKYDSVSLEGRFTISKDNAKNTVYLQINSLKPEDTAVYYCASSRAYGSSRLRLADTYEYWGQGTQVTVSSGGGGSGGGGSGGGGSGGGGSGGGGSGGGGSGGGGSGGGGSEVQLVESGGGLVQPGGSLRLSCVASGIRFMSMAWYRQAPGKHRELVARISSGGTTAYVDSVKGRFTISRDNSKNTVYLQMNSLKAEDTAVYYCNTFSSRPNPWGAGTQVTVSS
notes: Bivalent (heterodimeric) anti-VEGF VHH; also called VEGFBII23B04-40GS-5B05
% inhibition [14]: 100%
IC50 [14]: 0.016 nM
EC50 [15]: 0.334 nM
% inhibition [16]: 100%
IC50 [16]: 0.204 nM
EC50 [17]: 0.502 nM
% inhibition [18]: 97%
IC50 [18]: 0.254 nM
% inhibition [19]: 100%
IC50 [19]: 0.007 nM
% inhibition, VEGF HUVEC proliferation assay [20]: 98%
IC50, VEGF HUVEC proliferation assay [20]: 0.4 nM
IC50 [21]: 0.009 nM
% inhibition, VEGF HUVEC Erk phosphorylation assay [22]: 103%
IC50, VEGF HUVEC Erk phosphorylation assay [22]: 0.21 nM
Kd [23]: 0.07 nM
ka1 [23]: 1.2e+06 M⁻¹ s⁻¹
ka2 [23]: 0.023 s⁻¹
kd1 [23]: 0.011 s⁻¹
kd2 [23]: 0.00019 s⁻¹
% inhibition [24]: 100%
IC50 [24]: 0.012 nM

Further lines, results first:

% inh [8]: 100%
IC50 [8]: 0.2 nM
% inh [9]: 50%
IC50 [9]: 0.2 nM
Kd [10]: 0.36 nM
% inhibition [11]: 100%
IC50 [11]: 0.143 nM
% inhibition, VEGF HUVEC proliferation assay [12]: 92%
IC50, VEGF HUVEC proliferation assay [12]: 0.6 nM
IC50 [13]: 0.1 nM
B4: VEGFBII038 (VHH)
VHH: DVQLVESGGGLVQPGGSLRLSCAASGRTFSSYSMGWFRQAPGKEREFVVAISKGGYKYDAVSLEGRFTISRDNAKNTVYLQINSLRPEDTAVYYCASSRAYGSSRLRLADTYEYWGQGTLVTVSS
notes: also called VEGFBII0038

binding result (human Jagged-1): no binding (tested: 2.5e-7 M)
binding result (recombinant mouse DLL4): no binding (tested: 2.5e-7 M)
binding result (human DLL1): no binding (tested: 2.5e-7 M)
EC50 (recombinant human DLL4 [4]): 1.1 nM
IC50 (recombinant human DLL4 [25]): 0.7 nM
% inh (recombinant human DLL4 [7]): 57%
B7: DLLBII08C11 (VHH)
VHH: EVQLVESGGGLVQAGGSLRLSCAASGFTFDDYAIGWFRQAPGKEREGVSCISSHDRTTYYADSVKGRFTISSDNAKNTVYLQMNSLKPEDTAVYYCAADPLVCGYNDPRLADYWGQGTQVTVSS
notes: also called DLLBII8C11
